The values that follow come from the DeepSol protein solubility set.

The nature of the data set: soluble on expression in E. coli; label from the status in PepcDB or PDB records.
For the sequence “MIDDLLNFFNSFNVVKNYKLINQLKNEVDTLKSRLDIPRELLDGFYADRNSREYREVYEKDAPLVTVCIGTYNRGKLLVERSVRSVLEQSYGNIELIVVGDCCTDDTPRLVQGITDPRFRFINLPERGNYPENPLHRWCVAGTVPFNYALSQARGDFITHLDDDDEFVPDRIEKLVKFIQREKADLVWHPFWYERSNGRWAMRKAQEFSGGKVTTSSIFYHRWFTAVPWDIEAYRYQEPGDWNRLRKIKYLGARVARYPEPLLRHYCERNQESLSSRTIQTRNTKLEHHHHHH”, the “soluble on expression in E. coli” value is “not soluble”.

Consider “LFGVTSELSKDGRERIYRVEGQLFYASVEDFMAAFDFREALDRVVIDVSRAHIWDISSVQALDMAVLKFRREGAEVRIVGMNEASETMVDRLAIHDKPGAMDRLVAH”, for which the “soluble on expression in E. coli” value is “not soluble”.

With “MTAVRDPFFPADQSIRASHNPIEVRELGMMDYQRAWDLQAELNKQRQHDEINDVILVLEHPSIYTAGKRTQPSDRPQNGLPVIDVDRGGRITWHGPGQLVMYPIIKLAEPIDVVDYVRRVEEALIHVIRTHGIPNAGRIDGRSGVWVPGKTPEEHRKVAALGIRIAGGVTMHGLALNCDNTVEFYDYIVPCGISDAGVTTMSQEVGNDVTTQSMTAPLLAALDDAFAGRLVVADHSFASAPDPTKIPRRP”, the “soluble on expression in E. coli” value was “not soluble”.

On to “KRSNSIKRNPNAPVVRRGWLYKQDSTGMKLWKKRWFVLSDLCLFYYRDEKEEGILGSILLPSFQIALLTSEDHINRKYAFKAAHPNMRTYYFCTDTGKEMELWMKAMLDAALVQT”, for which the “soluble on expression in E. coli” value was “soluble”.

“MTAQTLYDKLWNSHVVREEEDGTVLLYIDRHLVHEVTSPQAFEGLKMAGRKLWRIDSVVSTADHNTPTGDWDKGIQDPISKLQVDTLDKNIKEFGALAYFPFMDKGQGIVHVMGPEQGATLPGMTVVCGDSHTSTHGAFGALAHGIGTSEVEHTMATQCITAKKSKSMLISVDGKLKAGVTAKDVALYIIGQIGTAGGTGYAIEFGGEAIRSLSMESRMTLCNMAIEAGARSGMVAVDQTTIDYVKDKPFAPEGEAWDKAVEYWRTLVSDEGAVFDKEYRFNAEDIEPQVTWGTSPEMVLDISSKVPNPAEETDPVKRSGMERALEYMGLEAGTPLNEIPVDIVFIGSCTNSRIEDLREAAAIAKDRKKAANVQRVLIVPGSGLVKEQAEKEGLDKIFIEAGFEWREPGCSMCLAMNADRLTPGQRCASTSNRNFEGRQGNGGRTHLVSPAMAAAAAVTGRFTDIRMMA”: the “soluble on expression in E. coli” value is “not soluble”.

Regarding “MAHHHHHHMSVSSPLASSGEREQYGPQEQRQYGFVPVQMTNLVPVRVVSVHGDFFDMEIHQDAPLHIVQRAAEDCFKVRPELQLLTHNRKPINPNQSLRRNGCLLLKGDPFVKIVLDVKKGSRLNIVCQMAHCEPIPLACEAEDTIWDVKKKFCSSLEKSEVTPQRIRLLWRYWELNDKATVDYYHIPTNSKLTVMKKRDILGGQQTERRRAPSQRRRQDVQRRHERCDADTDDVAAWPKAPSVVPPYEKYRQASGREPLEGEDNRSKTPNANGSAQVVEGGADRDSHHPPIRAWPALPQEQFGRAVIPLYPIVPPLSGGSYYREPRAQTPDRRPAVVPVAEATQVVDFTEVQRLRMEVEELGRRMETCVTDRAEFSAMEESFRAAVTRVSELEASVGRVQNLLKRALHLM”, the “soluble on expression in E. coli” value is reported as “not soluble”.

“MAHHHHHHPPKRAALIQNLRDSYTETSSFAVIEEWAAGTLQEIEGIAKAAVEAHATIRNSTYGRAQAEKSPEQLLGVLQRYQDLCHNVYCQAETIRTVIAIRIPEHKEADNLGVAVQHAVLKVIDELEIKTLGSGEKSGSGGAPTPIGMYALREYLSARSTVEDKLLGSVDAESGKTKGGSQSPSLLLELRQIDADFMLKVELATTHLSTMVRAVINAYLLNWKKLIQPRGGHLDVLYR”: the “soluble on expression in E. coli” value is on record as “soluble”.

For “MSRDTGDNLDRNQSGNLPMANVMDAYLSRRSVMRGSLGAAIAMIAGTGLTGCFDGGGSDHDDPVTEPPVTEPPVTEPEVPKLALGFQSIPGSRTDACVVAAGYSAYVLAPWGTPLNSNGNPWKSDGSNTSTDQANAMGMHHDGMHFFPINGSSEDGLLAINFEYIDTAALHPAGPTTDVNGKRPVEEVRKEINAHGAGVVRLQKINGRWQVVDNDPLNRRFTTASRMEITGPLRGTDHVKTKYSTAGTHCRGTNNNCGNGYTPWGTYLTCEENWPGIFVNKGTRPEDQRRIGVGTSSGQYKWESAAGDASEVDDEFARFDVTVKGASATDDYRNEASTYGYIVEIDPYNSSTLATKRTALGRFRHEGCAPGLPVAGKPLVWYMGDDSNNEYLYKWVSTAVWDPADATPADRLATGAKYLDQGKLYVARFNADGTGVWLLLDVATATTAGSTLGALYGDLPGIILNTRGAGDAVGATPMDRPEWTTVNPLNGDVYLTLTNNSARTPDKVDAANPRGPNRHGHIIRWHDSDDQLSFTWDIFVFGANAAGTADINRSGLTELNQFASPDGMSFDSRGVLWFETDNGETTLTDYTNDQLLAVIPTDLVDASGKQVPVNAQNQVDLRRFFVGPNGCEVTGITFTPDNKTLFVNIQHPDNWPYTDKATDATPAGATVRPRASTVVIQRIDGGEIGTV”, the “soluble on expression in E. coli” value is recorded as “not soluble”.

Consider “MGSDKIHHHHHHMTARQDLVDLIAAIDAGSGPARNPYWRDLAVDDSVARKAAVLMLFGALDNVPAASGKPLAPADLDVLLLERAHTLDDHPGQVAFPGGGIDPGETPIEAALREAEEETGLDSAGVEVLGAMPQLALPRGNFLVTPVLAWWHSPSPVRVVDYGESAQVFRVPVRDLLDPDNRVMATVSRAGQSFLSPAFVVNKVVVWGFTGMILNELFDHLGWSVPWDRSRLHQIDV”, for which the “soluble on expression in E. coli” value is listed as “not soluble”.

For the sequence “MLRVLIVDDEMLARDELAYLLKRTNDEMEINEAENIESAFDQMMDQKPDLLFLDVDLSGENGFDIAKRLKKMKHPPAIVFATAYDQYALKAFEVDALDYLTKPFDEERIQQTLKKYKKVNRDIVETEQNSHAGQHKLALSVGESIVIVDTKDIIYAGTEDGHVNVKTFDHSYTVSDTLVVIEKKLPDSDFIRVHRSFVVNTEYIKEIQPWFNSTYNLIMKDGSKIPVSRTYAKELKKLLHI”, the “soluble on expression in E. coli” value is on record as “not soluble”.

Turning to “MSTKVKKTTQLKQMLNSKDLEFIMEAHNGLSARIVQEAGFKGIWGSGLSVSAQLGVRDSNEASWTQVVEVLEFMSDASDVPILLDADTGYGNFNNARRLVRKLEDRGVAGACLEDKLFPKTNSLHDGRAQPLADIEEFALKIKACKDSQTDPDFCIVARVEAFIAGWGLDEALKRAEAYRNAGADAILMHSKKADPSDIEAFMKAWNNQGPVVIVPTKYYKTPTDHFRDMGVSMVIWANHNLRASVSAIQQTTKQIYDDQSLVNVEDKIVSVKEIFRLQRDDELVQAEDKYLPKN”, the “soluble on expression in E. coli” value was “soluble”.

“MSLSDFDYIQKNTPPEFPEKFKTALLPENIKKNRYSDVLANDDTRVKLNNNGYINANYIFQGRMIASQAPTIETIPDFLQMIIEQQVPIVIMLTKCKEKTRIKATPYWGYKSEGGKKVFGNYTVNTIDTLYDDVEEDKFMEDIQIRYLQIIYEDGVYSFIQIHYMGWPDFGVPLNPKDALDIVYIQYIIGTTSKFSNRNLVCVHCSAGVGRTGVYCLLSRIVEMVTYEILEKSETYSKQRSTSSSSKVREVEDRIEEILLSHPVISYEDCEVILPELVLSIRNERSKMVQTKEQYDFICETVNCFYEDALDSINQYYEVIDALTPLLQEKHSEIVQDFIKRNEEGHHHHHH”: the “soluble on expression in E. coli” value was “soluble”.

On to “MKNIKEKGSQALKITATVFILAVICMSSAASAANLHVDPEAEEGYTTIQAAVDAANAGDTIFVSPGTYVENLKIDKQVRIWSDSRNPENTIVRPSDPAESPVEITGERVTFSGFGVEDSEKAGILLSGATSCFINNNRAQNSKYGILLQDAESNNINGNVITLNEAGLRLESSRSNTIQDNLIAYNYGPGISLEESSRNIFFNNYFKNAENIEENAANADNTWQSTLTVKRNLIRGPYIGGNFWADIEGTGYSETCEDKNSNGICDASYTLNGGGSDNSPLFPKVPSAVTALENKLDAEAYELGMETRGVEVNETENPAGEQTGENGPEGEENKTAETEASENGTPAPGIGFAIMAAGAAYFLKRRKAAALEHHHHHH”, for which the “soluble on expression in E. coli” value was “not soluble”.

For “MGSDKIHHHHHHMGIRVSTISRCIGHLEDEIGVALFLRRPNGVTLTFAGEQFLVRARRAMTEVRHAICEAGIAGTGRNGFVRLGLLSSLAAPFPAMLIKIYCAAYPGVRILYSEGGAADHRAALQHHRLDLAFLPHPEKAEGCDALGLWEERLFAAMAQDDPLTRHDVVTWDDLRERHFIFSEVPPGPELLDYLTERLVGFGFLLKADLLTVYRDTVMRVIANGSDVTVIGEARVSHPIQGVACRPITGESLFFHAVWLPTNDNPAFRRFLSLAKVLSKQCSVCELKEGLAGPSGEDHSVMDETSASLERKSRLLKIVSERCATCLLKKAIAD”, the “soluble on expression in E. coli” value is listed as “not soluble”.

On to “GMKSLHRPDLYSWSTFNPARNIDFNGFAWIRPEGNILIDPVALSNHDWKHLESLGGVVWIVLTNSDHVRSAKEIADQTYTKIAGPVAEKENFPIYCDRWLSDGDELVPGLKVMELQGSKTPGELALLLEETTLITGDLVRAYRAGGLEILPDEKLMNKQKVVASVRRLAALEKVEAVLVGDGWSVFRDGRDRLKELVATLA”, for which the “soluble on expression in E. coli” value is recorded as “soluble”.

With “MRHALITAGTKGLGKQVTEKLLAKGYSVTVTYHSDITAMKKMKETYKNMEERLQFVQADVTKKEDLHKIVEEAISRFGKIDFLINNAGPYVFERKKLVDYEEDEWNEMIQGNLTAVFHLLKLVVPIMRKQNFGRIINYGFQGADSAPGWIYRSAFAAAKVGLVSLTKTVAYEEAEYGITANMVCPGDIIGEMKEATIQEARQLKERNTPIGRSGTGEDIARTISFLCEEDSDMITGTIIEVTGAVDVIHRHR”, the “soluble on expression in E. coli” value is reported as “not soluble”.

With “MGSDKIHHHHHHVNFRDLGGYPVGDGRRTRWGRLFRSDSLGALTEEDLALVAALDLYRVVDFRLPHERELHPNRLPVGAGPKVTEIGFWPDGVPEMLKALRELRIDAAGIERAVTGHYRRYAVHHRAEYRRMLEAVEEAAGRPTLIHCVSGKDRTGFGAAVILMALGVPRTVIVEDYLLTNDCRRDIGHLMPSGTTESVAEAFTAARPAYIEAAFESIDTAFGGIDDYLAHGLGFGEQRLQRLRECLTEPATGSASLLSPRRAGNP”, the “soluble on expression in E. coli” value is listed as “not soluble”.

For “MKITVIVPTYRRTKDLTRCLESLEKQSRPADEVLVVVRDTDVETWQFLETIAPHSLPLHTTTVRVPGVVAAMNAGLDIAQGDIIAFTDDDAAPHSNWLAQIETHFLAHEQIAGVGGRDWVYHGDRLEDGTCPVVGQVHWFGRVIGNHHIGIGKPREVDVLKGVNMSFRRSAVHGLRFDQRMLGTGAQVHFEVAFCLALKRAGWKLIYDPQIGVNHYPAQRFLEHHHHHH”, the “soluble on expression in E. coli” value is on record as “not soluble”.

Turning to “MTETATARRSRITPEREAELYEAVLDLLREVGYDALTMDAVAARTRSSKATLYRQWGGKPELVVKAIRHNKPGEIGDVDTGSLRGDLHALMVREDDCTMEQNSALMRGVAMALHQNPDLRQAFREQLIEPEMAEFQRVLQRAVDRGEIRADCPALDFLVHMMVGGFATRTLLDDQPPTREFLASYIDAVILPALGVSTH”, the “soluble on expression in E. coli” value is “not soluble”.

On to “GDQEPPLYVNENDIFTSPTRIEATLNGLYAAIKNTGTKSLMGGKSYLVFDNRGDDVINISNNLVTLFNTYNMNVGITDAENADTWTYAYLAINKVNTFLQSLEGAREVAGENYDRYVQEAKFVRALAYYYLNNLYPTPYSVNPDAKSVPLRLTAEAGTENNNMPRSTVKQIYEHILSDLENISALDTEVNTYTGVTHATQAAANMLKMRVYMAMNEWDKAITAGELVTGYSLPEDVTLIYKAPYFSQESIFSLPMADTNIPNTQQSLAEYYYDGKIMLIDTKSGIMSKPDYSLATDKRIIAFKGEKDLLMKFTDAKTKLQWVPIFRYAETLLDLAECYANKAGGEATAKSLLKQVRGRSVDAATDPLNIDNLSGDALKEAIYNEKRLEFIGEGIRGIDIMRRGEHFIKVGENETINVGPSDEKYTWPIPQVELLLNKDINK”, for which the “soluble on expression in E. coli” value was “soluble”.
